Data on one molecule can be found in US5580958, “Polypeptides encoding transcriptional activators and uses thereof” (La Jolla Cancer Research Foundation).

This series addresses PU.1 beta-galactosidase fusion (lambda 25.1, Ly25.1) (Mus musculus, UniProt P17433 P17433:1-272). The experiment in a line: Southwestern blot with multimerized 33-mer; methylation interference protects three G in GAGGAA; lower affinity than PU-1. Conditions: tags: beta-galactosidase fusion, partially purified on anti-beta-gal Sepharose; label: 32P. The procedure:
Production of beta-Galactosidase Fusion Protein and Western and Southwestern Analyses Lysogens were prepared from the lambda 25.1 and lambda 24.1 clones as described (Sturm et al., 1988) and the fusion proteins partially purified using anti-beta-galactosidase antibody bound to Sepharose (5 Prime - 3 Prime, Inc., Paoli, Pa.), as described by the manufacturer. Western and Southwestern analyses were carried out as described (Staudt et al., 1988).
Bacterial extracts prepared from lambda-gt11 and lambda 25.1 lysogens were fractionated on a 7.5% SDS-polyacrylamide gel, transferred to nitrocellulose and probed with labeled multimerized 33-mer. Only the lane with the lambda 25.1 extract contained a protein able to bind the probe. […] The positive filter was subsequently treated with rabbit antiserum to beta-galactosidase and mouse anti-rabbit immunoglobulin horseradish peroxidase conjugate. […] The appearance of several bands of lower molecular size are probably the result of degradation of the 150 kDa species. […] Some breakdown of the beta-galactosidase occurred in this sample resulting in a band at about 69 kDa.

B1: MHC class II I-A beta 33-mer (tetramer probe) (dsDNA)
DNA 1: GATCCGTCCCAAGTGAGGAACCAATCAGCATTG
DNA 2: CAATGCTGATTGGTTCCTCACTTGGGACGGATC
For the molecule B1, the binding result is on record as “binds”.
